From patent US20060063208A1

Biological target: BMP-2 (human) (UniProt P12643)
Test: cell-based or functional assay

Sequence of BMP-2 (human) (P12643 283-396 limits assumed): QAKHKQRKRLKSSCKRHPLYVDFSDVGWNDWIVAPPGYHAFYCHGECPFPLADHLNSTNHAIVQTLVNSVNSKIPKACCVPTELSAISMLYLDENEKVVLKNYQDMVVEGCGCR

BMP-dependent signaling, Msx2-Luc reporter in 10T1/2 and HepG2 cells: 8 fold
luciferase activity of the BRE-luc reporter in LLC-PK1 cells: 14 fold
Substance: DRAGON (DRG11-Responsive Axonal Guidance and Outgrowth of Neurite), recombinant, expressed in transfected cells (from UniProt Q7TQ33 49-415) (receptor)
